Test results published in PMC2877798.

What was measured:
[1] = molecular target: SNT, residues 1–215 of the HsdS (specificity) subunit of EcoR124I (UniProt P10485); test: AUC; sedimentation velocity of SNT alone at 25 μM; 30,000 rpm, 10 °C, buffer A (10 mM Tris–HCl, pH 8.0, 100 mM NaCl, 1 mM Na2EDTA), 280 nm; c(s)/c(M) analysis with SEDFIT
[2] = molecular target: M.EcoR124INT methyltransferase (hetero-tetramer of two SNT and two M subunits) (UniProt P10485)
[3] = molecular target: SNT, residues 1–215 of the HsdS (specificity) subunit of EcoR124I (UniProt P10485); test: AUC; sedimentation equilibrium of reconstituted M.EcoR124INT at 2.5 to 8.8 μM; 6500 rpm and 8500 rpm, 276 nm, global fit to a single ideal species model
[4] = molecular target: SNT, residues 1–215 of the HsdS (specificity) subunit of EcoR124I (UniProt P10485); test: AUC; sedimentation velocity of reconstituted M.EcoR124INT at 2.6 μM; 30,000 rpm, 10 °C, buffer A, 280 nm; c(s)/c(M) analysis with SEDFIT

## SNT, residues 1–215 of the HsdS (specificity) subunit of EcoR124I (from UniProt P10485 1-215) (domain or fragment)
[1]
  stoichiometry N: 2

B1: ocr (“overcome classical restriction”) protein (natural protein)
chain: MAMSNMTYNNVFDHAYEMLKENIRYDDIRDTDDLHDAIHMAADNAVPHYYADIFSVMASEGIDLEFEDSGLMPDTKDVIRILQARIYEQLTIDLWEDAEDLLNEYLEEVEEYEEDEE
[2]
  inhibition of in vitro DNA methylation by M.EcoR124INT (EcoRI protection assay; 50 nM MTase, 50 nM ocr dimer incubated with the MTase before DNA, 37 °C, 10 mM MgCl2): 50%

B2: M subunit (HsdM) of EcoR124I (natural protein)
chain: MKMTSIQQRAELHRQIWQIANDVRGSVDGWDFKQYVLGALFYRFISENFSSYIEAGDDSICYAKLDDSVITDDIKDDAIKTKGYFIYPSQLFCNVAAKANTNDRLNADLNSIFVAIESSAYGYPSEADIKGLFADFDTTSNRLGNTVKDKNARLAAVLKGVEGLKLGDFNEHQIDLFGDAYEFLISNYAANAGKSGGEFFTPQHVSKLIAQLAMHGQTHVNKIYDPAAGSGSLLLQAKKQFDNHIIEEGFFGQEINHTTYNLARMNMFLHNINYDKFDIKLGNTLTEPHFRDEKPFDAIVSNPPYSVKWIGSDDPTLINDERFAPAGVLAPKSKADFAFVLHALNYLSAKGRAAIVCFPGIFYRGGAEQKIRQYLVDNNYVETVISLAPNLFFGTTIAVNILVLSKHKTDTNVQFIDASELFKKETNNNILTDAHIEQIMQVFASKEDVAHLAKSVAFETVVANDYNLSVSSYVEAKDNREIIDIAELNAELKTTVSKIDQLRKDIDAIVAEIEGCEVQK
[3]
  stoichiometry N (M per SNT (2:2 hetero-tetramer)): 1
[4]
  stoichiometry N (M per SNT (2:2 hetero-tetramer)): 1
